Here are results for two substances from US20020164732A1.

Assay [1] has as its target HsdM subunit encoded by the chromosome of the IL1403 strain (L. lactis ssp lactis (strain IL1403)). Nature of the assay: cell-based or functional assay.
Assay [2] addresses HsdR subunit encoded by the chromosome of the IL1403 strain (L. lactis ssp lactis (strain IL1403)). Nature of the assay: cell-based or functional assay.

HsdM subunit encoded by the chromosome of the IL1403 strain (L. lactis ssp lactis (strain IL1403)), sequence (chain, as listed by the source limits assumed): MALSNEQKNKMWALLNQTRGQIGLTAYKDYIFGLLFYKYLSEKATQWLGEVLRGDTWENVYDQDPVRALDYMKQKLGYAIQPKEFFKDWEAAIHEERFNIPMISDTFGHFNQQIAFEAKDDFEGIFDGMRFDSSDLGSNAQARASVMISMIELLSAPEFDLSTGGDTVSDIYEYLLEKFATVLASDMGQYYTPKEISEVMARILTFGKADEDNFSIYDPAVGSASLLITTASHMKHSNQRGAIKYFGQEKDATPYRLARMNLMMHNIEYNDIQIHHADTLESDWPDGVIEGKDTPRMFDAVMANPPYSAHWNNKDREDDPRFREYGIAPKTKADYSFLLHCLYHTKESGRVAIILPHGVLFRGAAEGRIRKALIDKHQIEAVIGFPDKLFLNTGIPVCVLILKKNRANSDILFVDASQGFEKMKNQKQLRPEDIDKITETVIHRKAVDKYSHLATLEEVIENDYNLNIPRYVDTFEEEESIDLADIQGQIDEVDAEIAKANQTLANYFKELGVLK
HsdR subunit encoded by the chromosome of the IL1403 strain (L. lactis ssp lactis (strain IL1403)), sequence (chain, as listed by the source limits assumed): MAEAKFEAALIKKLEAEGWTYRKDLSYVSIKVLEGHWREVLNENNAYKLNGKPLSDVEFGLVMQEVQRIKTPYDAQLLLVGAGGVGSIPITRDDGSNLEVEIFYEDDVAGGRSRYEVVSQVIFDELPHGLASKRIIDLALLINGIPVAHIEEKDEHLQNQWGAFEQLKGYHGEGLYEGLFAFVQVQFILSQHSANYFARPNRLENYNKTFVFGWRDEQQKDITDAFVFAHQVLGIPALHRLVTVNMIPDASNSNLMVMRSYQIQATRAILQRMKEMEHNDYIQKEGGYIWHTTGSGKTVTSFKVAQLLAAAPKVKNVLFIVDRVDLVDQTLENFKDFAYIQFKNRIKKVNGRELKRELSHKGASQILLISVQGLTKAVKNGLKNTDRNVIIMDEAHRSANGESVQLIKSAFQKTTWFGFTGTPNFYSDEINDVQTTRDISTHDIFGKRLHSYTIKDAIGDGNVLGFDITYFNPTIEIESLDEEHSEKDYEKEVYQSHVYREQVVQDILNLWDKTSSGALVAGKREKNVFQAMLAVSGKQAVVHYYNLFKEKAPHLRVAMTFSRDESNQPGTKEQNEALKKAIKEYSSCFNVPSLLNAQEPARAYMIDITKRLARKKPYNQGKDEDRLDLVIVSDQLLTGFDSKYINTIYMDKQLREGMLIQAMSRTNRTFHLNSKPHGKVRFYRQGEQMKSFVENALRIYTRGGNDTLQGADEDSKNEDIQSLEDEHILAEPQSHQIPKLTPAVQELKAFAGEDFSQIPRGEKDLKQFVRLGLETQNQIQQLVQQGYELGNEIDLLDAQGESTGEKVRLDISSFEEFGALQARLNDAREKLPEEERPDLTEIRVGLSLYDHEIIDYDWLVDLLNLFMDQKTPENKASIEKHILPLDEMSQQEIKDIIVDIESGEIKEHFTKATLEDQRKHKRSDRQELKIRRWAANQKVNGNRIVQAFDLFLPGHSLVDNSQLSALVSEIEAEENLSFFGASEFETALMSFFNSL

“HsdS subunit encoded by the pIL261 plasmid (orf2 of the 3.7 kb EcoRI insert from pIL103)”: the EOP (efficacy of propagation) of bIL67 phage on IL1403 transformed with pIL261, against IL1403 without plasmids in assay [1] and in assay [2] was 6e-07 throughout.

“HsdS subunit encoded by the pIL7 plasmid”: the EOP (efficacy of propagation) of bIL67 phage on IL1403 transformed with pIL7, against IL1403 without plasmids in assay [1] and in assay [2] was 0.006 in each case.
